Among the data in patent publication US20260139066A1 (VRIJE UNIVERSITEIT BRUSSEL, published 2026) are koff, Kd and kon values, retold here.

Test [1] deals with T1, human urokinase plasminogen activator receptor, recombinant extracellular domain protein (human, UniProt Q03405 23-303).
T1 construct: Bought recombinant protein (Sino Biological); also called h uPAR; human uPAR
Put plainly: SPR (Biacore T200) off-rate screening of bacterial extract, h uPAR immobilised on CM5; column koff. How it is done:
(§1) SPR was performed using a Biacore device (Biacore T200; Cytiva). First, the CM5 sensor chip (Biacore, Series S Sensor Chip CM5; Cytiva) was activated with 1-ethyl-3-(3-dimethylaminopropyl) carbodiimide/N-hydroxysuccinimide (EDC/NHS; Amine Coupling Kit; Cytiva). Subsequently, h, m or c uPAR recombinant proteins (5 μg/mL) were immobilized on separate chips at pH 5. The SPR measurements were done at 25° C. in HEPES buffered saline (HBS; Cytiva) as a running buffer, with a flow rate of 30 μL/min. For off-rate screening, the contact time was set at 120 s, dissociation time at 600 s, and the runs were replicated 5 times. […] The association step was allowed for 180 s, the dissociation step for 600 s. For both studies, regeneration of 20 s at 30 μL/min using 0.1 M glycine at pH 2.5 followed by a stabilization period of 60 s, was performed.
(SPR reads the build-up and loss of mass on a sensor chip optically.)

In test [2] the target is T1, human urokinase plasminogen activator …. Put plainly: SPR (Biacore T200) kinetics, purified sdAb 150-0.62 nM, h uPAR immobilised on CM5, kd/ka. As for the experimental part:
(§2) The thermal stability of the sdAbs was determined via a thermal shift assay. Melting temperatures (Tₘ) ranged between 59.5 and 73.6° C. (Table 1). The kinetic parameters (kₐ, Kd, KD) of the purified sdAbs were evaluated via SPR on respectively h and c uPAR recombinant protein (FIG. 10, Table 1). Contrarily to the BE-ELISA results, no h/m or h/m/c cross-reactive sdAbs were identified. […] Finally, their binding to cell-membrane-expressed uPAR was investigated via flow cytometry using 1) h or c uPAR lentivirally transduced HEK293T cells and 2) U87 or HT29 cells with natural h expression. SdAbs showing a significant shift in binding compared to the control conditions (i.e., binding of the non-targeting sdAb R3B23) were further taken into consideration (FIG. 2). Based on the combined results in terms of production yield, stability, binding characteristics, and cross-reactivity, 2 anti-h uPAR (sdAb 3 and 4) and 4 cross-reactive h/c uPAR (sdAb 15, 16, 17 and 18, having respectively SEQ ID NOs: 2, 20, 21, 22) sdAbs were selected for further in vivo evaluation.
as §1

In test [3] the target is T2, canine urokinase plasminogen activator receptor, recombinant protein (canine).
T2 construct: Recombinant c uPAR produced by VIB (Ghent); also called c uPAR; canine uPAR
T2 chain: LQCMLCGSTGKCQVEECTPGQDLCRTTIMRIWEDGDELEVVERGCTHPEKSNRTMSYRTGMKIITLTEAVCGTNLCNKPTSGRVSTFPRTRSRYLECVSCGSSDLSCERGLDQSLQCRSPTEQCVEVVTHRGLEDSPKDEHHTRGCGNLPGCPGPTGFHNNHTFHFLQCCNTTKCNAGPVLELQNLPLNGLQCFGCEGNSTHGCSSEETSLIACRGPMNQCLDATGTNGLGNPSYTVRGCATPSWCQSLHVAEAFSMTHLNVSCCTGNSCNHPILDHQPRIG
Put plainly: SPR (Biacore T200) off-rate screening of bacterial extract, c uPAR immobilised on CM5; column koff. How it is done:
as §1

Test [4] concerns the target T1, human urokinase plasminogen activator …. Put plainly: SPR (Biacore T200) kinetics, purified sdAb 150-0.62 nM, h uPAR immobilised on CM5, 1:1 fit; column kd. How it is done: as §2, §1
In test [5] the target is T2, canine urokinase plasminogen activator …. Put plainly: SPR (Biacore T200) kinetics, purified sdAb 150-0.62 nM, c uPAR immobilised on CM5, kd/ka. How it is done:
as §2, §1

Test [6] shares this target. Description: SPR (Biacore T200) kinetics, purified sdAb 150-0.62 nM, c uPAR immobilised on CM5, 1:1 fit. As for the experimental part:
as §2, §1

The target in test [7] is T1, human urokinase plasminogen activator …. Put plainly: SPR (Biacore T200) kinetics, purified sdAb 150-0.62 nM, h uPAR immobilised on CM5, 1:1 fit. How it is done: as §2, §1
For test [8], the target named is T2, canine urokinase plasminogen activator …. Put plainly: SPR (Biacore T200) kinetics, purified sdAb 150-0.62 nM, c uPAR immobilised on CM5, 1:1 fit; column kd. As for the experimental part: as §2, §1

T1 sequence (Q03405 23-303 limits assumed): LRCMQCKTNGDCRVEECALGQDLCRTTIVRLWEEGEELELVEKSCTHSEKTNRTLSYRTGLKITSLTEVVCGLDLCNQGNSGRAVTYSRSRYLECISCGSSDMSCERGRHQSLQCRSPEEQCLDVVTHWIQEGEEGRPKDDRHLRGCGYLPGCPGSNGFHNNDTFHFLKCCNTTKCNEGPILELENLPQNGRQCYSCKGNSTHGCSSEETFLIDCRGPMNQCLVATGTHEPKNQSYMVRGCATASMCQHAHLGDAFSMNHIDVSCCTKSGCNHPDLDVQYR

B1: sdAb 15 (clone 5A4) with carboxy-terminal hexahistidine tag (VHH)
VHH: QVQLQESGGGWVQPGGSLRLSCAASGFTLDYYGIGWFRQAPGKEREGVSCISSSDGSTYYADSVKGRFTISRDNAKNTVYLQMNSLKPEDTAVYYCATRGASCYYTGSYSLGYDYWGQGTQVTVSS
notes: Lead compound; C-terminal 6His for purified-protein SPR; koff screen used bacterial extracts of the pMECS-GG construct; also called sdAb15.6His; Nr 15
The koff is the rate constant with which the complex falls apart. What is called Kd is the concentration at which binding is half-saturated. What is called kon is the rate constant with which the complex forms. With B1, the koff in test [1] came out at 0.0042 s⁻¹; in test [3], 0.0065 s⁻¹; in test [4] it was 0.0034 s⁻¹; in test [8] it was 0.002 s⁻¹. Besides, the results for the Kd in test [2] and in test [5] were 2.1 nM and 12 nM, respectively. Also, the results for the kon in test [6] and in test [7] were 170000 M⁻¹ s⁻¹ and 1.6e+06 M⁻¹ s⁻¹, respectively.

B2: sdAb 16 (clone 5A5) with carboxy-terminal hexahistidine tag (VHH)
VHH: QVQLQESGGGLVQPGGSLRLSCAISGFTLDYYGIGWFRQAPGKEREGVSCISSSDGSTYYADSVKGRFTISRDNAKNTVYLQMNSLKPEDTAVYYCATRGASCYYSGSYSLGYDYWGQGTQVTVSS
notes: C-terminal 6His for purified-protein SPR; koff screen used bacterial extracts; also called Nr 16
Turning to B2, the koff was 0.0027 s⁻¹ in test [1], 0.01 s⁻¹ in test [3], 0.0015 s⁻¹ in test [4] and 0.0031 s⁻¹ in test [8]. Besides, the Kd in test [2] was 3 nM; in test [5] it was 36 nM. The kon amounted to 86000 M⁻¹ s⁻¹ in test [6] and 500000 M⁻¹ s⁻¹ in test [7].

B3: sdAb 17 (clone 5B7) with carboxy-terminal hexahistidine tag (VHH)
VHH: QVQLQESGGGLVQPGGSLRLSCAVSGSTLEYYGIGWFRQAPGKEREGVSCISSSDGSTYYADSVKGRFTISRDNAKNTVYLQMNSLKPEDTAVYYCATRGASCYYTGSYSLGYDYWGQGTQVTVSS
notes: C-terminal 6His for purified-protein SPR; koff screen used bacterial extracts; also called Nr 17
As for B3, the koff in test [1] was found to be 0.0026 s⁻¹; in test [3] it was 0.0073 s⁻¹; in test [4], 0.0019 s⁻¹; in test [8] it was 0.0019 s⁻¹. Besides, the Kd in test [2] worked out at 2.3 nM; in test [5], 17 nM. The kon in test [6] was found to be 120000 M⁻¹ s⁻¹; in test [7], 860000 M⁻¹ s⁻¹.

B4: sdAb 18 (clone 5H2) with carboxy-terminal hexahistidine tag (VHH)
VHH: QVQLQESGGGLAQPGGSLRLSCTASGFTSDYYGIGWFRQAPGKEREGVSCISSSDGSTYYADSVKGRFTISRDNAKNTVYLQMNSLKPEDTAVYYCATRGASCYYTGSYSLGYDYWGQGTQVTVSS
notes: C-terminal 6His for purified-protein SPR; koff screen used bacterial extracts; also called Nr 18
On to B4, for which the koff stood at 0.0031 s⁻¹ in test [1], 0.0092 s⁻¹ in test [3], 0.004 s⁻¹ in test [4] and 0.0035 s⁻¹ in test [8]. Besides, the figures for the Kd in test [2] and in test [5] were 4.7 nM and 34 nM, respectively. In addition, the values for the kon in test [6] and in test [7] were 100000 M⁻¹ s⁻¹ and 840000 M⁻¹ s⁻¹, respectively.
